Results reported in patent US20150023979A1 (VALDOSPAN, published 2015).

T1: HPV56 E7 protein, recombinant (His-TEV-E7 fusion from E. coli) (Human Papilloma Virus type 56 (HPV56), UniProt P36833 1-105, CKII phosphorylation of the consensus site serines in the antigen preparation of Example 2)
T1 construct: mature; also called VE7_HPV56; not shown: N-terminal 6x Histidine tag and TEV cleavage site of the vector
T1 sequence: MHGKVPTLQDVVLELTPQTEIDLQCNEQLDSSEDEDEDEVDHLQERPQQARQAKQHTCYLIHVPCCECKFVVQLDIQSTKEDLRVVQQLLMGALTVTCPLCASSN

T2: HPV45 E7 protein, recombinant (His-TEV-E7 fusion from E. coli) (Human Papilloma Virus type 45 (HPV45), UniProt P21736 1-106, CKII phosphorylation of the consensus site serines in the antigen preparation of Example 2; biotin on primary amines in the SPR assay)
T2 construct: mature; also called VE7_HPV45; not shown: N-terminal 6x Histidine tag and TEV cleavage site of the vector
T2 sequence: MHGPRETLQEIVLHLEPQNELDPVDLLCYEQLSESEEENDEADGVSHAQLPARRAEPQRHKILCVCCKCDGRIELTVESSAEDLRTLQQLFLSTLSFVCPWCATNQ

T3: HPV11 E7 protein (low risk type), recombinant (His-TEV-E7 fusion from E. coli) (Human Papilloma Virus type 11 (HPV11), UniProt P04020 1-98)
T3 construct: mature; also called VE7_HPV11; not shown: N-terminal 6x Histidine tag and TEV cleavage site of the vector
T3 sequence: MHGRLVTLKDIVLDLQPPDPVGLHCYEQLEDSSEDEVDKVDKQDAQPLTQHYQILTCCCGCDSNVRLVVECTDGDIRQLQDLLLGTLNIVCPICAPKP

T4: HPV38 E7 protein (beta-papillomavirus), recombinant (His-TEV-E7 fusion from E. coli) (Human Papilloma Virus type 38 (HPV38), UniProt Q80908 1-100)
T4 construct: mature; also called HPVE7 38; VE7_HPV38; not shown: N-terminal 6x Histidine tag and TEV cleavage site of the vector
T4 sequence: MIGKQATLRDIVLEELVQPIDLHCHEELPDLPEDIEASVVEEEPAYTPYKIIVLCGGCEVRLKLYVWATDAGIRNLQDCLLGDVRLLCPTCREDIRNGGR

T5: HPV6 E7 protein (low risk type), recombinant (His-TEV-E7 fusion from E. coli) (Human Papilloma Virus type 6 (HPV6), UniProt Q84292 1-98)
T5 construct: mature; the only HPV6 entry in the list of constructs is VE7_HPV6A; also called VE7_HPV6A; not shown: N-terminal 6x Histidine tag and TEV cleavage site of the vector
T5 sequence: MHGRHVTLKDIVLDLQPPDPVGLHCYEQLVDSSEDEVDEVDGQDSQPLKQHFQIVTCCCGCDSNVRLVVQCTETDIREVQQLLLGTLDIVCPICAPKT

T6: HPV5 E7 protein (beta-papillomavirus), recombinant (His-TEV-E7 fusion from E. coli) (Human Papilloma Virus type 5 (HPV5), UniProt P06932 1-103)
T6 construct: mature; also called VE7_HPV05; not shown: N-terminal 6x Histidine tag and TEV cleavage site of the vector
T6 sequence: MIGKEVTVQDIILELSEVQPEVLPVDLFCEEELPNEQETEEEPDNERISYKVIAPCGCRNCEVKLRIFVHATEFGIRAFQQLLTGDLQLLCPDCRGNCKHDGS

T7: HPV35 E7 protein, recombinant (His-TEV-E7 fusion from E. coli) (Human Papilloma Virus type 35 (HPV35), UniProt P27230 1-99, CKII phosphorylation of the consensus site serines in the antigen preparation of Example 2)
T7 construct: mature; also called VE7_HPV35; not shown: N-terminal 6x Histidine tag and TEV cleavage site of the vector
T7 sequence: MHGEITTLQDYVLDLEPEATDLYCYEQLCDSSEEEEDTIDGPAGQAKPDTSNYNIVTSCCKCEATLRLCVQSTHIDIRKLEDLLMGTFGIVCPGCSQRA

T8: HPV52 E7 protein, recombinant (His-TEV-E7 fusion from E. coli) (Human Papilloma Virus type 52 (HPV52), UniProt P36831 1-99, CKII phosphorylation of the consensus site serines in the antigen preparation of Example 2)
T8 construct: mature; also called VE7_HPV52; not shown: N-terminal 6x Histidine tag and TEV cleavage site of the vector
T8 sequence: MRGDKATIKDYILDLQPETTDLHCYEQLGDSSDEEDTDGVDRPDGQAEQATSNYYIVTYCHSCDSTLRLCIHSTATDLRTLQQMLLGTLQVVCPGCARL

T9: HPV33 E7 protein, recombinant (His-TEV-E7 fusion from E. coli) (Human Papilloma Virus type 33 (HPV33), UniProt P06429 1-97, CKII phosphorylation of the consensus site serines in the antigen preparation of Example 2; biotin on primary amines in the SPR assay)
T9 construct: mature; also called VE7_HPV33; not shown: N-terminal 6x Histidine tag and TEV cleavage site of the vector
T9 sequence: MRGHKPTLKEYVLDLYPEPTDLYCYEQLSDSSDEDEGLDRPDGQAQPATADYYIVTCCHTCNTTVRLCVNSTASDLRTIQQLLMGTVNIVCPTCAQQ

T10: HPV31 E7 protein, recombinant (His-TEV-E7 fusion from E. coli) (Human Papilloma Virus type 31 (HPV31), UniProt P17387 1-98, CKII phosphorylation of the consensus site serines in the antigen preparation of Example 2)
T10 construct: mature; also called VE7_HPV31; not shown: N-terminal 6x Histidine tag and TEV cleavage site of the vector
T10 sequence: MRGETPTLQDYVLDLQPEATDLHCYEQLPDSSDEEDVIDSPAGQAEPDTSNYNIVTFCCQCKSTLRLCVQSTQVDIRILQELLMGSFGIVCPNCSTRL

B1: ACAB161 (antibody, IgG2a, V domains shown)
VH: EVMLVESGGGLVKPGGSLKLSCAASGFTFSRYTMSWVRQTPEKRLEWVATISSGGTNTNYTDSVKGRFTISRDNAKNNLYLQMSSLRSEDTALYYCTRGVRRGDGYAMDYWGQGTSVTVSS
VL: DIVLTQAAPSVPVTPGESVSISCRSTKSLLHSNGNTYLYWFLQRPGQSPQALIYRTSNLASGVPDRFSGSGSGTAFTLRISRVEAEDVGVYYCMQHLEYPLTFGAGTKLELKR
notes: the printed entries run on into the first residues of the constant domains; also called HPV16E7 IgG2a antibody ACAB161
B2: ACAB164 (antibody, V domains shown)
VH: EVQLQQSGLALVQPGASVKISCRTSGYTFTEYTLHWVKQSHGKSLEWIGGINPNNGSPKYNQKFKGKATLTVDKSSSTAYMELRSLTSEDSAVYYCARLDINSFFDYWGQGTTLTVSS
VL: DVVMTQSPLSLPVSLGDQASISCRSSQSLVHSNGNTYLQWYLQKPGQSPKLLIYKLSNRFSGVPDRFSGSGSGTDFTLKISRVEAEDLGVYSCSQTTHVPPTFGGGTKLEIKR
notes: the printed entries run on into the first residues of the constant domains; also called HPV16E7 IgG2a antibody ACAB164
B3: ACAB452 (antibody, IgG1, V domains shown)
VH: DVQLQESGPGLVKPSQSLSLTCTVTGYSITSDYAWNWIRQFPGNKLEWVGYITYSGSTNYNPSLKSRISITRDTSKNQFFLQFNSVTSEDTATYFCARSWFAYWGQGTLVTVSS
VL: DIVMTQTPLSLPVSLGDQASISCRSSQSLVHSNGNTYLHWFLQKPGQSPKLLIYKVSNRFSGVPDRFSGSGSGTDFTLKISRVEAEDLGVYFCLQSAHVPLTFGAGTKLELTR
notes: also called HPV45E7 IgG1 antibody ACAB452

Key:
[1] = target: T1, HPV56 E7 protein, recombinant …; test: ELISA and dot-blot, semiquantitative crossreactivity
Protocol: (§1) Using ELISA and dot-blot techniques semiquantitative crossreactivities of the isolated mAbs was analysed. For this various mAbs were tested against the accepted high risk species.

[2] = target: T2, HPV45 E7 protein, recombinant …; test: as above
Protocol: as §1

[3] = target: T3, HPV11 E7 protein (low risk type), …; test: ELISA and dot-blot
[4] = target: T4, HPV38 E7 protein (beta-papillomavirus), …; test: ELISA and dot-blot
[5] = target: T5, HPV6 E7 protein (low risk type), …; test: ELISA and dot-blot
[6] = target: T6, HPV5 E7 protein (beta-papillomavirus), …; test: ELISA and dot-blot
[7] = target: T7, HPV35 E7 protein, recombinant …; test: ELISA and dot-blot, semiquantitative crossreactivity (+ weak interaction)
Protocol: as §1

[8] = target: T8, HPV52 E7 protein, recombinant …; test: ELISA and dot-blot, semiquantitative crossreactivity (++ strong positive)
Protocol: as §1

[9] = target: T9, HPV33 E7 protein, recombinant …; test: as above
Protocol: as §1

[10] = target: T10, HPV31 E7 protein, recombinant …; test: as above
Protocol: as §1

Binder | binding result [1] | binding result [2] | binding result [3] | binding result [4] | binding result [5] | binding result [6] | binding result [7] | binding result [8] | binding result [9] | binding result [10]
B1 | no binding | no binding | no binding | no binding | no binding | no binding | binds | binds | binds | binds
B2 | no binding | no binding | no binding | no binding | no binding | no binding |  | binds | binds | binds
B3 |  |  | no binding | no binding | no binding | no binding | binds |  |  | 
